Patent US20120137392A1

Biological target: eJMC^Y859A (eJMC mutated in the first amino acid of the YXXΦ sequence) fused to GFP (Arabidopsis thaliana), Q9FL28
Assay: cell-based or functional assay

eJMC^Y859A (eJMC mutated in the first amino acid of the YXXΦ sequence) fused to GFP (Arabidopsis thaliana), Q9FL28, sequence (Q9FL28 other isoform, or with tags, fused parts or gaps Y859A Y859A): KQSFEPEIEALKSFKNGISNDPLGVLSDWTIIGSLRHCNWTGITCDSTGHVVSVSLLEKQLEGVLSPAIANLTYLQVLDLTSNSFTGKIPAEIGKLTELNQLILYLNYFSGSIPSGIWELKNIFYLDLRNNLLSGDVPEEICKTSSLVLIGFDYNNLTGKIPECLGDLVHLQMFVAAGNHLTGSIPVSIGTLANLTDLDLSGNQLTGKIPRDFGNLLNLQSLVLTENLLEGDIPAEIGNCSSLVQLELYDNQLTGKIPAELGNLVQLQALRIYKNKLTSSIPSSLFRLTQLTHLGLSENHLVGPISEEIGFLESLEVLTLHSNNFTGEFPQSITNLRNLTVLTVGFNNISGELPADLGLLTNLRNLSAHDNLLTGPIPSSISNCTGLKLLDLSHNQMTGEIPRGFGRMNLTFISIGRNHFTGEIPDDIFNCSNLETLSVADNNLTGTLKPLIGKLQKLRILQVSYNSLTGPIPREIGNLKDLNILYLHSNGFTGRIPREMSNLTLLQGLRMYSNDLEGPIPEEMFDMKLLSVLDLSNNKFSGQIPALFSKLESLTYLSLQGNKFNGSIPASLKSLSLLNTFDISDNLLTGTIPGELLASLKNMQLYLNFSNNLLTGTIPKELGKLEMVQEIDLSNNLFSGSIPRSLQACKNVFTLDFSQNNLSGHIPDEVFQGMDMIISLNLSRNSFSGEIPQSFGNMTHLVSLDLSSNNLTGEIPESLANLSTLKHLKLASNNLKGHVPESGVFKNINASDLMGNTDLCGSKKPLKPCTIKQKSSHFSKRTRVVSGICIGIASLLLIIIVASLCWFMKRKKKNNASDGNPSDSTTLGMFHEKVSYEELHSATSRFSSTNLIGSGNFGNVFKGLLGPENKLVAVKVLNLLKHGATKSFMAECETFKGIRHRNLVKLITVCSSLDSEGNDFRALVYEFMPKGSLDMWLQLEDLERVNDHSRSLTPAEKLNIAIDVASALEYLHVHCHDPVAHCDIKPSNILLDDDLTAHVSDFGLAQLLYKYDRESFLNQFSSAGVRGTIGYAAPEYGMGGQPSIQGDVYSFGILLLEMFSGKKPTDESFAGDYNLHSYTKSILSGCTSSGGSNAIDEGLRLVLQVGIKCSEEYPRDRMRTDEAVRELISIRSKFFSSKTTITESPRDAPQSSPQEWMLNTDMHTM

QRLSTGSRINSAKDDAAGLQIA [flg22 (peptide derived from bacterial flagellin)]
ethylene accumulation, agroinfiltrated tobacco leaf explants, against the negative control: 4.8 times
